This is an account of results in patent US7582427B2, “Method of estimating drug metabolic activity by analyzing mutations in glucuronosyl transferase gene” (National University Corporation Shiga University of Medical …, priority 2002, dated 2009).

The target of data set [1] is T1, UGT1A1 (Homo sapiens, UniProt P22309, Y486D).
T1 sequence (P22309 26-533 Y486D): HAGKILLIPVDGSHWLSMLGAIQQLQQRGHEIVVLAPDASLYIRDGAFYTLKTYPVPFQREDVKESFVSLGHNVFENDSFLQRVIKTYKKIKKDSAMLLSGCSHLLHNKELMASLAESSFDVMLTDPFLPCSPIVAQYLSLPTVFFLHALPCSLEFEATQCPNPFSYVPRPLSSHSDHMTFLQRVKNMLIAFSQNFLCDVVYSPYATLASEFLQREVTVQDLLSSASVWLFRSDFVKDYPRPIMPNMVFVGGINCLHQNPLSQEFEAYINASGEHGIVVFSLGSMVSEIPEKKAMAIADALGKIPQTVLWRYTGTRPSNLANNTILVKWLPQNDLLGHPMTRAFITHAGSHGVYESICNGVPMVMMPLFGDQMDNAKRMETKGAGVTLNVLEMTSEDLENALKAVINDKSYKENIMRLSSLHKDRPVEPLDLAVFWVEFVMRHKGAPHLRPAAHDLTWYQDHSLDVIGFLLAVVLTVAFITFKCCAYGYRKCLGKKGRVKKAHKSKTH
The settings on record: fraction of normal enzyme activity, background report; cited from earlier work.

The target in data set [2] is T1, UGT1A1. The experiment in a line: Enzyme kinetics of glucuronidation of 2-amino-5-nitro-4-trifluoromethylphenol by UGT1A1, normal versus Y486D. Type of data set: biochemical. An excerpt: 2-amino-5-nitro-4-trifluoromethylphenol is glucuronidated by UGT. The enzymatic reactions in glucuronidation by the enzymes of each of the isoforms UGT1A1 and UGT1A6 between their normal molecules and molecules with Y486D mutation were compared, respectively.

The test system of another data set is UGT1A1 molecule. The experiment in a line: UGT activity (glucuronidation) of recombinant UGT1A1 molecules, bilirubin as substrate. The format is biochemical, human. The conditions noted are these: relative to normal. An excerpt: Further, it was shown that an abnormality of drug metabolism can be assayed for more effectively by combining this detection with detection of (a) mutation(s) in the regions of exons 1 to 4 other than the exon 5 region.

B1: Y486D (homozygous): recombinant UGT1A1 molecule with Y486D mutation (exon 5), tyrosine replaced with aspartic acid at position 486 (protein, UniProt P22309 26-533, looked up, variant Y486D)
UDP-glucuronosyltransferase …: HAGKILLIPVDGSHWLSMLGAIQQLQQRGHEIVVLAPDASLYIRDGAFYTLKTYPVPFQREDVKESFVSLGHNVFENDSFLQRVIKTYKKIKKDSAMLLSGCSHLLHNKELMASLAESSFDVMLTDPFLPCSPIVAQYLSLPTVFFLHALPCSLEFEATQCPNPFSYVPRPLSSHSDHMTFLQRVKNMLIAFSQNFLCDVVYSPYATLASEFLQREVTVQDLLSSASVWLFRSDFVKDYPRPIMPNMVFVGGINCLHQNPLSQEFEAYINASGEHGIVVFSLGSMVSEIPEKKAMAIADALGKIPQTVLWRYTGTRPSNLANNTILVKWLPQNDLLGHPMTRAFITHAGSHGVYESICNGVPMVMMPLFGDQMDNAKRMETKGAGVTLNVLEMTSEDLENALKAVINDKSYKENIMRLSSLHKDRPVEPLDLAVFWVEFVMRHKGAPHLRPAAHDLTWYQDHSLDVIGFLLAVVLTVAFITFKCCAYGYRKCLGKKGRVKKAHKSKTH
modifications: homozygous
In the case of B1, the “enzyme activity relative to that of the normal enzyme” value with UGT1A1 [1] is 1/13. The “maximum velocity relative to the maximum velocity of the wild type” value with UGT1A1 [2] (substrate 2-amino-5-nitro-4-trifluoromethylphenol) was “about 12%”. Also, the “Km value relative to wild type” value in the data set with UGT1A1 [2] (with respect to 2-amino-5-nitro-4-trifluoromethylphenol) is “about half of that of the wild type”; with UGT1A1 [2] (with respect to UDP-glucuronate) it was “equal to that of the wild type”. In addition, the “UGT relative activity (glucronidation activity)” value (“UGT relative activity” for short) with UGT1A1 molecule turned out to be 8%.

B2: Y486D (heterozygous): recombinant UGT1A1 molecule corresponding to heterozygous Y486D mutation (protein, UniProt P22309 26-533, looked up, variant Y486D)
UDP-glucuronosyltransferase …: HAGKILLIPVDGSHWLSMLGAIQQLQQRGHEIVVLAPDASLYIRDGAFYTLKTYPVPFQREDVKESFVSLGHNVFENDSFLQRVIKTYKKIKKDSAMLLSGCSHLLHNKELMASLAESSFDVMLTDPFLPCSPIVAQYLSLPTVFFLHALPCSLEFEATQCPNPFSYVPRPLSSHSDHMTFLQRVKNMLIAFSQNFLCDVVYSPYATLASEFLQREVTVQDLLSSASVWLFRSDFVKDYPRPIMPNMVFVGGINCLHQNPLSQEFEAYINASGEHGIVVFSLGSMVSEIPEKKAMAIADALGKIPQTVLWRYTGTRPSNLANNTILVKWLPQNDLLGHPMTRAFITHAGSHGVYESICNGVPMVMMPLFGDQMDNAKRMETKGAGVTLNVLEMTSEDLENALKAVINDKSYKENIMRLSSLHKDRPVEPLDLAVFWVEFVMRHKGAPHLRPAAHDLTWYQDHSLDVIGFLLAVVLTVAFITFKCCAYGYRKCLGKKGRVKKAHKSKTH
modifications: heterozygous
notes: recombinant UGT1A1 molecule corresponding to heterozygous Y486D mutation
Regarding B2, the “UGT relative activity” value with UGT1A1 molecule is 36%.

B3: P229Q (heterozygous): recombinant UGT1A1 molecule corresponding to heterozygous P229Q mutation (protein, UniProt P22309 26-533, looked up, variant P229Q)
UDP-glucuronosyltransferase …: HAGKILLIPVDGSHWLSMLGAIQQLQQRGHEIVVLAPDASLYIRDGAFYTLKTYPVPFQREDVKESFVSLGHNVFENDSFLQRVIKTYKKIKKDSAMLLSGCSHLLHNKELMASLAESSFDVMLTDPFLPCSPIVAQYLSLPTVFFLHALPCSLEFEATQCPNPFSYVPRPLSSHSDHMTFLQRVKNMLIAFSQNFLCDVVYSQYATLASEFLQREVTVQDLLSSASVWLFRSDFVKDYPRPIMPNMVFVGGINCLHQNPLSQEFEAYINASGEHGIVVFSLGSMVSEIPEKKAMAIADALGKIPQTVLWRYTGTRPSNLANNTILVKWLPQNDLLGHPMTRAFITHAGSHGVYESICNGVPMVMMPLFGDQMDNAKRMETKGAGVTLNVLEMTSEDLENALKAVINDKSYKENIMRLSSLHKDRPVEPLDLAVFWVEFVMRHKGAPHLRPAAHDLTWYQYHSLDVIGFLLAVVLTVAFITFKCCAYGYRKCLGKKGRVKKAHKSKTH
modifications: heterozygous
notes: recombinant UGT1A1 molecule corresponding to heterozygous P229Q mutation
Consider B3, for which, in the data set with UGT1A1 molecule, the “UGT relative activity” value was 15%.
